# Test results: US20070243589A1 (Pfizer, published 2007)
# Changes are numbered by the printed parent chain.
# B1: 062G05 scFv (non-germlined) (scFv)
# scFv: QVQLVESGAEVKKPGASVKVSCKASGYTFTSYGISWVRQAPGQGLEWMGWISAYTGNTNYAQKFQGRVTMTTDTSTSTAYMELRSLRSDDTAVYYCARDRGYYDAFDIWGQGTLVTVSSGGGGSGGGGSGGGGSDIQMTQSPSTLSASIGDRVTITCRASEGIYHWLAWYQQKPGKAPKLLIYKASSLASGAPSRFSGSGFGTDFTLTISSLQPDDFATYYCQQMGEWKAAFGGGTKLEIKRAAAH
# notes: Optimized clone derived from GIL16
# B2: 062A09 scFv (non-germlined) (scFv)
# scFv: B1 scFv with I51V, S85G, F106Y, W228Y, K229N, A231T, F232I
# notes: as for B1
# B3: 376B10 scFv (non-germlined) (scFv)
# scFv: EVQLVQSGAEVKKPGASVKVSCQASGYTFSDYYIHWVRQTPGQGFEWMGWVNPDTGGTRYAQKFQGWVTMTRDMSNTTAYMELPGLRDDDTAVYYCARDLTGYDQYTAWGQGTLVTVSSGGGGSGGGGSGGGGSAQSVLTQPPSVSVAPGKTATITCGGNNFRNKRVHWYQQRPGQAPVLVIYYDSDRPSGIPERFSGSRSGNTATLTISRVEAGDEADFYCSTFDPFTDRPLFGGGTKLTVLGAAAH
# notes: Optimized clone derived from GIL68
# B4: 375G06 scFv (non-germlined) (scFv)
# scFv: EVQLVQSGAEVKKPGASVKVSCQASGYTFSDYYIHWVRQTPGQGFEWMGWVNPDTGGTRYAQKFQGWVTMTRDMSNTTAYMELPRLRDDDTAVYYCARDLTGYDYYDRWGQGTLVTVSSGGGGSGGGGSGGGGGGSGGGGGGSGGGGSAQSVLTQPPSMSVAPGKTATITCGGNNFRNKRVHWYQQRPGQAPVLVIYYDSDRPSGIPERFSGSRSGNTATLTISRVEAGDEADFYCQVWDFLADEAMFGGGTKLTVLGAAAH
# notes: as for B3
# B5: 367D04 scFv (non-germlined) (scFv)
# scFv: EVQLVESGGGVVRPGGSLRLSCAASGFTFDDYGMNWVRQAPGKGLEWVSGVNWNGGTRDYAASVKGRFTISRDNAKNSLYLQMNSLRAEDTALYYCARGWYSGSPWSLGHWGRGTLVTVSSGGGGSGGGGSGGSGGGSGGSGGGSSGGGSGGGGSAQAVLTQPSSVSGSPGQSVTISCTGASGDVGAYNFVSWYQQHPGKTPKLIIYDVNKRPSGVSNRFSGSKSGNTASLTISRLQAEDESDYYCSSYTSRYTTEFGGGTKVTVLGAAAH
# notes: Optimized clone derived from GIL60
# B6: 097D09 scFv (non-germlined) (scFv)
# scFv: EVQLVESGGGLVTPGGSLRLSCAASGFTFSDYYMSWVRQAPGRGLEWVSAISGSGGSTYYADSVKGRITISRDNAKNSLYLQMSSLRSEDTAVYYCARGLWVWDPLDYWGRGTLVTVSSGGGGSGGGGSGGGGSDIQMTQSPSTLSASIGDRVTITCRASEGIYHWLAWYQQKPGKAPKLLIYKASSLASGAPSRFSGSGFGTDFTLTISSLQPDDFATYYCQQYSEFAWTFGGGTKLEIKRAAAH
# notes: Optimized clone derived from GIL01
# B7: 355E04 scFv (non-germlined) (scFv)
# scFv: QVQLVQSGAEVKKPGASVKVSCKASGYTFTHYYMHWVRQAPGQGLEWVGWINPYTGGAFYAQKFQGRVTMTRDTSINTAYMELSRLGSDDTAVYYCAREPEKFDSPNAEIWGRGTMVTISSEGGGSGGGGSGGSGSAQAVLTQPSSVSGAPGQRVTISCTGSSSNIGAGYGVHWYQQLPGTAPKLLIYGNSNRPSGVPDRFSGSKSGTSASLAITGLQAEDEADYYCQSYDSSLSGYVFGTGTQLTVLSA
# notes: Optimized clone derived from GIL92
# B8: 356A11 scFv (non-germlined) (scFv)
# scFv: QVQLVQSGAEVKKPGASVKVSCKASGYTFTNYYMHWVRQAPGQGLEWVGWINPYTGSAFYAQKFRGRVTMTRDTSINTAYMELSRLGSDDTAVYYCAREPEKFDSDDSDVWGRGTMVTVSGGGGSSGGGGSGGSGSAQAVLTPPSVSGAPGQRVTISCTGSSSNIGAGYGVHWYQQLPGTAPKLIIYGDSSRPSGVPDRFSGSKSGTSASLAITGLQAEDEADYYCQSYDNSLSGYVFGTGTQLTVLSA
# notes: as for B7
# B9: 087B03 scFv (non-germlined) (scFv)
# scFv: EVQLVESGGGVVRPGGSLRLSCAASGFTFDDYGMNWVRQAPGKGLEWVSGVNWNGGTRDYAASVKGRFTISRDNAKNSLYLQMNSLRAEDTALYYCARGWYSGAAWNMGYWGRGTLVTVSSGGGGSGGGGSGGGGSAQAVLTQPSSVSGSPGQSITISCTGASGDVGAYNFVSWYQQHPGKTPKLIIYDVNKRPSGVSNRFSGSKSSNTASLTISGLQAEDESDYYCSSYTSTFSVVFGGGTKVTVLGAAAH
# notes: as for B5
# B10: 368D04 scFv (non-germlined) (scFv)
# scFv: EVQLVESGGGVVRPGGSLRLSCAASGFTFDDYGMNWVRQAPGKGLEWVSGVNWNGGTRDYAASVKGRFTISRDNAKNSLYLQMNSLRAEDTALYYCARGWYSGAAWNMGYWGRGTLVTVSSGGGGSGGGGSGGSGGGSGGGGGGSGGGGSAQAVLTQPSSVSGSPGQSITISCTGASGDVGAYNFVSWYQQHPGKTPKLIIYDVNKRPSGVSNRFSGSKSGNTASLTISGLQAEDESDYYCASLVSDFSVVFGGGTKVTVLGAAAH
# notes: as for B5
# B11: 354A08 scFv (non-germlined) (scFv)
# scFv: QVQLVQSGAEKKPGASVKVSCKASGYTFTDYYMHWVRQAPGQGLEWVGWINPYTGGAFYAQKFRGRVTMTRDTSINTAYMELSRLGSDDTAVYYCAREPERFGDSTGQVWGRGTMVTVSSGGGGSGGGGSGGSRSAQAVLTQPSSVSGAPRQRVTISCTGSSSNIGAGYGVHWYQQLPGTAPKLLIYGNSNRPSGVPDRFSGSKSGTSASLAITGLQAEDEADYYCYHWDKEQSGYVFGTGTQLTVLSA
# notes: as for B7
# B12: 355B06 scFv (non-germlined) (scFv)
# scFv: EVQLVQSGAEVKKPGASVKVSCQASGYTFTDYYMHWVRQAPGQGLEWVGWINPYTGSAFYAQKFRGRATMTRNTSINTAYMELSRLGSDDTAVYYCAREPEKFGESSGQLWGRGTMVTISSGGGGSGGGGSGGSGSAQAVLTQPSSVSGAPGQRVTISCTGSSSNIGPGYGVHWYQQLPGTAPKLLIYGDSNRPSGVPDRFSGSKSGTSASLAITGLQAEDEADYYCQSYDSGLSGYVFGTGTQLTVLSA
# notes: as for B7
# B13: 166G05 scFv (non-germlined) (scFv)
# scFv: EVQLVQSGAEVKKPGASVKVSCQASGYTFSDYYIHWVRQTPGQGFEWMGWVNPDTGGTRYAQKFQGWVTMTRDMSNTTAYMELPRLRDDDTAVYYCARDLTGFDPFDIWGQGTLVTVSSGGGGSGGGGSGGGGSAQSVLTQPPSVSVAPGKTATITCGGNNFRNKRVHWYQQRPGQAPVLVIYYDSDRPSGIPERFSGSRSGNTATLTISRVEAGDEADFYCQVWDFLTDSGSFGGGTKLTVLGAAAH
# notes: as for B3
# B14: 062A09 (antibody, V domains shown)
# VH: QVQLVQSGAEVKKPGASVKVSCKASGYTFTSYGISWVRQAPGQGLEWMGWVSAYTGNTNYAQKFQGRVTMTTDTSTSTAYMELRSLRSDDTAVYYCARDRGYYDAFDIWGQGTLVTVSS
# VL: DIQMTQSPSTLSASVGDRVTITCRASEGIYHWLAWYQQKPGKAPKLLIYKASSLASGVPSRFSGSGSGTEFTLTISSLQPDDFATYYCQQMGEYNATFGGGTKVEIKR
# notes: The list MOLECULES holds only the non-germlined 062A09 IgG; also called 062A09 germlined IgG
# B15: 062G05 IgG (non-germlined) (antibody, V domains shown)
# VH: B14 VH with Q6E, V51I
# VL: B14 VL with V15I, V58A, S67F, E70D, Y94W, N95K, T97A, V104L
# notes: IgG
# Target: T1, biotinylated IL-22 with an N-terminal His/FLAG tag (bio.IL-22H/F) (human, UniProt Q9GZX6 34-179, biotinylated (site not stated))
# T1 construct: not shown: N-terminal His/FLAG tag
# T1 sequence: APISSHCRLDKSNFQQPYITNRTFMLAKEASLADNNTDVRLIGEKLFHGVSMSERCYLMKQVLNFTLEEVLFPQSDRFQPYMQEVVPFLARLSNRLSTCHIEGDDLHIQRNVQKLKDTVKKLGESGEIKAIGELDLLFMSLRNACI
# Experiment: DELFIA competition assay: scFv titrated against bio.IL-22H/F binding to the captured IL-22 receptor complex
# Method: Microtiter plates were coated with an IL-22 receptor complex antibody (1 μg/ml in PBS), and incubated for 1.5 hours at room temperature. Plates were washed three times in PBST, and blocked for 1 hour at room temperature with 2% MPBS. After a further 3 washes, diluted cell conditioned medium containing an IL-22 receptor complex was added and incubated overnight at 4° C. Crude scFv supernatants were prepared as described above. The following day, 25 μl of diluted scFv sample and 25 μl of bio.IL-22H/F (6 ng/ml) were added to the washed plates, and incubated for 1.5 hours at room temperature. Plates were washed 3 times in PBST, then binding of bio.IL-22H/F to the IL-22 receptor complex was detected with Europium-Streptavidin and the DELFIA® reagent kit (PerkinElmer). Time Resolved Fluorescence was measured using a Victor 2™ Plate Reader (Perkin Elmer).
# Purified scFv from positive clones identified from the screening were tested in the DELFIA® IL-22 receptor complex competition assay as described above. A titration of scFv concentrations was used in order to establish the clone potency as measured by IC₅₀ values in the assay. Fourteen optimized clones were designated 097D09, 062A09, 062G05, 087B03, 367D04, 368D04, 166B06, 166G05, 375G06, 376B10, 354A08, 355B06, 355E04, and 356A11.
row,Binder,IC50
1,B1,0.1 nM
2,B2,0.13 nM
3,B3,0.79 nM
4,B4,0.44 nM
5,B5,0.33 nM
6,B6,0.39 nM
7,B7,0.41 nM
8,B8,0.55 nM
9,B9,0.12 nM
10,B10,0.32 nM
11,B11,0.16 nM
12,B12,0.18 nM
13,B13,0.19 nM

# Target: T2, BSA (bovine, UniProt P02769)
# T2 construct: background wells labelled BSA; also called bovine serum albumin
# Experiment: ELISA: wells labelled BSA, IgG at 1 µg/ml, HRP anti-human IgG, A450
# Method: (§1) Cross species reactivity of germlined and non-germlined optimized antibodies were determined as follows: ELISA plates (Costar, Cat. #3590) were coated overnight with 1 μg/ml of rat, mouse, or human IL-22 or human IL-26 in PBS buffer. Plates were washed with PBST buffer (0.05% Tween20 in PBS) 3 times, then blocked with 1% BSA (Sigma A8918)/PBST for 1 hr at RT. Antibodies were added at 1 μg/ml, incubated 1 hr at 25° C. […] The plates were incubated for 1 hour at 25° C., then washed with PBST, and developed with TMB (KPL, Cat. #50-76-04). Reaction was stopped with 0.18 M H₂S0₄. Plates were read at OD 450 nm.
# T2 sequence (P02769 25-607 limits assumed): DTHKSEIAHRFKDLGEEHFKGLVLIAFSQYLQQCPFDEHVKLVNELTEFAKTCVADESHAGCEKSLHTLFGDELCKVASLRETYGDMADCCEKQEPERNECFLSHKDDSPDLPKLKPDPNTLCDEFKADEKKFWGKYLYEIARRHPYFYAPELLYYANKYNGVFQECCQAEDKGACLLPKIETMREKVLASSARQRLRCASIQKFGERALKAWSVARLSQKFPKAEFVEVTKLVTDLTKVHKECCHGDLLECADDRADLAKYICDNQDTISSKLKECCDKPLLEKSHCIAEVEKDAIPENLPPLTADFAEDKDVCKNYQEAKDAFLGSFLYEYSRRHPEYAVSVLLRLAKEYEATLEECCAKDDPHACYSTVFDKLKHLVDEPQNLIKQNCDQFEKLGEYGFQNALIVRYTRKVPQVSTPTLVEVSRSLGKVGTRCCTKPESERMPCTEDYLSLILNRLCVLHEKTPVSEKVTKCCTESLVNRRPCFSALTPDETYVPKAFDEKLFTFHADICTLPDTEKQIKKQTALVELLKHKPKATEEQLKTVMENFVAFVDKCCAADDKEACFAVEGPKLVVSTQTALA
row,Binder,binding result
1,B14,no binding (tested: 1 µg/ml (single concentration))
2,B15,no binding (tested: 1 µg/ml (single concentration))

# Target: T3, human IL-22 (human, UniProt Q9GZX6 34-179)
# T3 sequence: T1 sequence
# Experiment: cell-based or functional assay
Binder,IC50 of scFv in BaF3-IL-22 proliferation assay,IC50 of IgG in BaF3-IL-22 proliferation assay
B1,0.182 nM,
B2,0.267 nM,
B3,0.104 nM,
B4,0.118 nM,
B5,0.16 nM,
B6,0.298 nM,
B7,0.192 nM,
B8,0.124 nM,
B9,0.212 nM,
B10,0.186 nM,
B11,0.219 nM,
B15,,0.112 nM
B12,0.183 nM,
B13,0.204 nM,

# Target: T4, IL-26 (human, UniProt Q9NPH9)
# T4 construct: coated on the ELISA plate at 1 µg/ml; also called human IL-26
# T4 sequence (cytokine, looked up): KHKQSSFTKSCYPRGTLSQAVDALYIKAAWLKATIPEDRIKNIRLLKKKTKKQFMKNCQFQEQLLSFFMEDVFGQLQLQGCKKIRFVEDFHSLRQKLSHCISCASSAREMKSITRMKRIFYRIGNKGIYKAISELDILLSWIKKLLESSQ
# Experiment: ELISA: plate coated with 1 µg/ml human IL-26, IgG at 1 µg/ml, HRP anti-human IgG, A450
# Method: as §1
row,Binder,binding result
1,B14,no binding (tested: 1 µg/ml (single concentration))
